Test results published in article PMC10397247.
Read-outs that look alike come from different tables or passages of the source.

T1: APC9096-AA
T1 chain: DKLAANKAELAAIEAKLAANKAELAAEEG

T2: APC9319-AA
T2 chain: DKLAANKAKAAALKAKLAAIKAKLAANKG

T3: APC8910-AA
T3 chain: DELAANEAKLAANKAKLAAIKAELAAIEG

T4: 4H3413-AA
T4 chain: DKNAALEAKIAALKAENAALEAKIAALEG

T5: 4H982-AA
T5 chain: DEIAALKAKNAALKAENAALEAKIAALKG

T6: 4H3631-AA
T6 chain: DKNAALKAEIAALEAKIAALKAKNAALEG

T7: 4H384-AA
T7 chain: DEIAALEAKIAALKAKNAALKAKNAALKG

T8: 4H340-AA
T8 chain: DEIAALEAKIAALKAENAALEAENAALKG

T9: 4H697-AA
T9 chain: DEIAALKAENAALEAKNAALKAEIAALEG

T10: 4H3606-AA
T10 chain: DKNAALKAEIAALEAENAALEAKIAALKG

T11: 4H3588-AA
T11 chain: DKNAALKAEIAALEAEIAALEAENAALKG

T12: 4H3697-AA
T12 chain: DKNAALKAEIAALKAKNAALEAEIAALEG

T13: 4H3718-AA
T13 chain: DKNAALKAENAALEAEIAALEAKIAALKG

T14: 4H3865-AA
T14 chain: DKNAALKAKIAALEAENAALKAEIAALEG

T15: 4H971-AA
T15 chain: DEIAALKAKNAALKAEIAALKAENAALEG

T16: 4H3591-AA
T16 chain: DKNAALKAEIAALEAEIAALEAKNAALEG

T17: 4H428-AA
T17 chain: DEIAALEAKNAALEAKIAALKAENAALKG

T18: 4H656-AA
T18 chain: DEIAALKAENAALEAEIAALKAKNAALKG

T19: 4H497-AA
T19 chain: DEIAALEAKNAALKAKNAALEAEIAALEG

T20: 4H391-AA
T20 chain: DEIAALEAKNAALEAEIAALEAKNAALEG

T21: 4H3709-AA
T21 chain: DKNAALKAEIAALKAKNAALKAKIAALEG

T22: 4H478-AA
T22 chain: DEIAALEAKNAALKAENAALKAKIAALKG

T23: 4H3666-AA
T23 chain: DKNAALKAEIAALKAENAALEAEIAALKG

T24: 4H3920-AA
T24 chain: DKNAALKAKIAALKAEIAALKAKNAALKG

T25: 4H3628-AA
T25 chain: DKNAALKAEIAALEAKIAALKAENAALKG

T26: 4H3939-AA
T26 chain: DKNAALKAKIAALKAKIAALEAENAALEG

T27: 4H675-AA
T27 chain: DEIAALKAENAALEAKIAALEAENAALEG


Legend:
Experiment in all cases: two-hybrid library CCmax;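 also: natural log of median RNA to DNA barcode read ratio; higher means stronger binding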
APC9096-AA = molecular target: T1, APC9096-AA; conditions: mean of both orientations
APC9319-AA = molecular target: T2, APC9319-AA; conditions: mean of both orientations
APC8910-AA = molecular target: T3, APC8910-AA
4H3413-AA = molecular target: T4, 4H3413-AA; conditions: mean of both orientations
4H982-AA = molecular target: T5, 4H982-AA; conditions: mean of both orientations
4H3631-AA = molecular target: T6, 4H3631-AA; conditions: mean of both orientations
4H384-AA = molecular target: T7, 4H384-AA; conditions: mean of both orientations
4H340-AA = molecular target: T8, 4H340-AA
4H697-AA = molecular target: T9, 4H697-AA; conditions: mean of both orientations
4H3606-AA = molecular target: T10, 4H3606-AA; conditions: mean of both orientations
4H3588-AA = molecular target: T11, 4H3588-AA; conditions: mean of both orientations
4H3697-AA = molecular target: T12, 4H3697-AA; conditions: mean of both orientations
4H3718-AA = molecular target: T13, 4H3718-AA; conditions: mean of both orientations
4H3865-AA = molecular target: T14, 4H3865-AA; conditions: mean of both orientations
4H971-AA = molecular target: T15, 4H971-AA; conditions: mean of both orientations
4H3591-AA = molecular target: T16, 4H3591-AA
4H428-AA = molecular target: T17, 4H428-AA; conditions: mean of both orientations
4H656-AA = molecular target: T18, 4H656-AA; conditions: mean of both orientations
4H497-AA = molecular target: T19, 4H497-AA; conditions: mean of both orientations
4H391-AA = molecular target: T20, 4H391-AA; conditions: mean of both orientations
4H3709-AA = molecular target: T21, 4H3709-AA; conditions: mean of both orientations
4H478-AA = molecular target: T22, 4H478-AA; conditions: mean of both orientations
4H3666-AA = molecular target: T23, 4H3666-AA; conditions: mean of both orientations
4H3920-AA = molecular target: T24, 4H3920-AA; conditions: mean of both orientations
4H3628-AA = molecular target: T25, 4H3628-AA
4H3939-AA = molecular target: T26, 4H3939-AA; conditions: mean of both orientations
4H675-AA = molecular target: T27, 4H675-AA

Binder | interaction score (4H971-AA) | interaction score (4H428-AA) | interaction score (4H656-AA) | interaction score (4H497-AA) | interaction score (4H391-AA) | interaction score (4H3709-AA) | interaction score (4H478-AA) | interaction score (4H3666-AA) | interaction score (4H3920-AA) | interaction score (4H3939-AA) | also measured
DELAANEAKLAANKAKLAAIKAELAAIEG [APC8910-AA] |  |  |  |  |  |  |  |  |  |  | interaction score (APC9096-AA): -2.09; interaction score (APC9319-AA): -2.07; interaction score (APC8910-AA): -2.88
DEIAALEAKIAALKAENAALEAENAALKG [4H340-AA] |  |  |  |  |  |  |  |  |  |  | interaction score (4H3413-AA): -1.52; interaction score (4H982-AA): -1.24; interaction score (4H3631-AA): -0.0653; interaction score (4H384-AA): 1.51; interaction score (4H340-AA): 0.807; interaction score (4H697-AA): -1.32; interaction score (4H3606-AA): -0.46; interaction score (4H3588-AA): -0.126; interaction score (4H3697-AA): -1.98; interaction score (4H3718-AA): -0.983; interaction score (4H3865-AA): -1.26
DKNAALKAEIAALEAEIAALEAKNAALEG [4H3591-AA] | -1.24 | -1.03 | -0.984 | -1.86 | -2.02 | -0.696 | -1.53 | -1.67 | 0.759 | 1.03 | interaction score (4H3591-AA): -1.51; interaction score (4H3628-AA; mean of both orientations): -0.555; interaction score (4H675-AA): -1.63
DKNAALKAEIAALEAKIAALKAENAALKG [4H3628-AA] | -1.01 | -0.847 | -1.43 | -1.67 | -1.27 | -1.58 | -2.19 | -1.56 | 0.724 | 0.744 | interaction score (4H3628-AA): 0.286; interaction score (4H675-AA; mean of both orientations): -1.51
